{"source": "patent US20240150440A1", "about": "(LUMEN BIOSCIENCE, published 2024)", "key": {"[1]": {"target": "T1, recombinant SARS-CoV-2 RBD with C-terminal AviTag (SARS-CoV-2, UniProt P0DTC2 319-541)"}, "[2]": {"target": "T1, recombinant SARS-CoV-2 RBD with …", "remark": "listed apart in the source"}, "[3]": {"target": "T1, recombinant SARS-CoV-2 RBD with …", "experiment": "BLI, biotinylated RBD on streptavidin biosensors; OR: over-range [Cont. 7]"}, "[4]": {"target": "T1, recombinant SARS-CoV-2 RBD with …", "remark": "listed apart in the source"}, "[5]": {"target": "T1, recombinant SARS-CoV-2 RBD with …", "remark": "listed apart in the source"}, "[6]": {"target": "T1, recombinant SARS-CoV-2 RBD with …", "experiment": "BLI, biotinylated RBD on streptavidin biosensors; OR: over-range [Cont. 6]"}, "[7]": {"target": "T2, SARS-COV-2 Wuhan Reference RBD (SARS-CoV-2, UniProt P0DTC2 319-541)"}, "[8]": {"target": "T1, recombinant SARS-CoV-2 RBD with …", "experiment": "BLI, biotinylated RBD on streptavidin biosensors; OR: over-range"}, "[9]": {"target": "T1, recombinant SARS-CoV-2 RBD with …", "experiment": "ELISA, competition with coated ACE2-Fc for RBD"}, "[10]": {"target": "T1, recombinant SARS-CoV-2 RBD with …", "experiment": "BLI, biotinylated RBD on streptavidin biosensors"}, "[11]": {"target": "T1, recombinant SARS-CoV-2 RBD with …", "remark": "listed apart in the source"}, "[12]": {"target": "T1, recombinant SARS-CoV-2 RBD with …", "experiment": "ELISA, competition with coated ACE2-Fc for RBD [Cont. 3]"}, "[13]": {"target": "T2, SARS-COV-2 Wuhan Reference RBD", "experiment": "ELISA, RBD coated"}}, "note": "Where two headings read alike, the source gives them in different places.", "data": [{"binder": "MBP-5HVZ-R5C-B1-H6 (VHH, not shown: large carriers; small tags and cut ends) VHH: QVQLVESGGGLVQPGGSLRLSCAASGSGFSNNAMHWYRQAPGKQREGVAGITSGSVSFYADSVKGRFTISRDNAKNTVYLQMNSLKPEDTAVYYCAAVTGSSTGNAGQGYLTWGQGTQVTVSS", "values": [{"measurement": "Kd", "setting": "[1]", "result": 0.01, "unit": "µM"}, {"measurement": "IC50", "setting": "[2]", "result": 0.0003, "unit": "µM"}, {"measurement": "Kd", "setting": "[2]", "result": 0.00998, "unit": "µM"}]}, {"binder": "PP888 MBP-S1b-E11-H6 (VHH, Form: Monomer) VHH: QVQLVESGGGLVQPGGSLRLSCAASGSYASIASMHWFRQAPGKEREFVAGVTSGGSTNYGDSVKGRFTISRDNAKNTVYLQMNSLKPEDTAVYYCNALAGANYESQWEEYNYWGQGTQVTVSS", "values": [{"measurement": "Kd", "setting": "[3]", "result": "~5.29", "unit": "µM"}]}, {"binder": "MBP-5HVZ-R5d-E1-H6 (VHH, not shown: large carriers; small tags and cut ends) VHH: QVQLVESGGGLVQPGGSLRLSCAASGSSFSINWMHWFRQAPGKQREGVASINSTGSDYYADSVKGRFTISRDNAKNTVYLQMNSLKPEDTAVYYCAAAITQPMPQGKGAPPGFYYWGQGTQVTVSS", "values": [{"measurement": "Kd", "setting": "[4]", "result": 0.00798, "unit": "µM"}]}, {"binder": "MBP-5HVZ-R5A-E5-H6 (VHH, not shown: large carriers; small tags and cut ends) VHH: QVQLVESGGGLVQPGGSLRLSCAASGYDFDILRMAWFRQAPGKEREMVAAITSAESVNYEDSVKGRFTISRDNAKNTVYLQMNSLKPEDTAVYYCATYDYTDDYGYASWGQGTQVTVSS", "values": [{"measurement": "Kd", "setting": "[1]", "result": "~0.031", "unit": "µM"}, {"measurement": "IC50", "setting": "[5]", "result": 0.0177, "unit": "µM"}, {"measurement": "Kd", "setting": "[5]", "result": 0.031, "unit": "µM"}]}, {"binder": "PP887 MBP-S1b-E7-H6 (VHH, Form: Monomer) VHH: QVQLVESGGGLVQPGGSLRLSCAASGGEFSDNGLHWFRQAPGKQREFVATASSDGSTQYRDSVKGRFTISRDNAKNTVYLQMNSLKPEDTAVYYCTALLMSSAGEYDVWGQGTQVTVSS", "values": [{"measurement": "Kd", "setting": "[6]", "result": "~6.57", "unit": "µM"}]}, {"binder": "PP788 (VHH, not shown: large carriers; small tags and cut ends) VHH: QVQLVESGGGLVQPGGSLRLSCAASGSIESINAIHWFRQAPGKAREEVAAITENDVDYYADSVKGRFTISRDNAKNTVYLQMNSLKPEDTAVYYCASLSSGYQYVGFRYWGQGTQVTVSS", "values": [{"measurement": "EC50", "setting": "[7]", "result": 0.00156, "unit": "µM"}]}, {"binder": "PP806 MBP-R2B-E6-H6 (VHH, Form: Monomer) VHH: QVQLVESGGGLVQPGGSLRLSCAASGGVTRGNAMAWYRQAPGKQREIVAAIDNGGSHAYGDSVKGRFTISRDNAKNTVYLQMNSLKPEDTAVYYCAVFPDHDSEQASIDRVYWGQGTQVTVSS", "values": [{"measurement": "Kd", "setting": "[8]", "result": "~1.4", "unit": "µM"}]}, {"binder": "dimeric VHH (VHH-5HVZ-MBP) R2B-E6 (VHH) VHH: QVQLVESGGGLVQPGGSLRLSCAASGGVTRGNAMAWYRQAPGKQREIVAAIDNGGSHAYGDSVKGRFTISRDNAKNTVYLQMNSLKPEDTAVYYCAVFPDHDSEQASIDRVYWGQGTQVTVSS", "values": [{"measurement": "IC50", "setting": "[9]", "result": 0.0179, "unit": "µM"}, {"measurement": "Kd", "setting": "[10]", "result": 0.0103, "unit": "µM"}]}, {"binder": "R5A-B7 (competition ELISA sample) (VHH) VHH: QVQLVESGGGLVQPGGSLRLSCAASGAFFSYGAIHWFRQAPGKQREEVAAITSGGSTGYADSVKGRFTISRDNAKNTVYLQMNSLKPEDTAVYYCNAGVVWLPSNAAYNLWGQGTQVTVSS", "values": [{"measurement": "Kd", "setting": "[11]", "result": 0.0131, "unit": "µM"}]}, {"binder": "MBP-5HVZ-R5B-G1-H6 (VHH) VHH: QVQLVESGGGLVQPGGSLRLSCAASGSIGQIVLVHWFRQAPGKQRELVAGITSPSSTYYADSVKGRFTISRDNAKNTVYLQMNSLKPEDTAVYYCNTELEGKTQGFTGKTVWYDYWGQGTQVTVSS", "values": [{"measurement": "IC50", "setting": "[12]", "result": 0.0266, "unit": "µM"}]}, {"binder": "PP1150 MBP-5HVZ-PAPA-R5b-G1-H6 (VHH, Form: Dimer) VHH: QVQLVESGGGLVQPGGSLRLSCAASGSIGQIVLVHWFRQAPGKQRELVAGITSPSSTYYADSVKGRFTISRDNAKNTVYLQMNSLKPEDTAVYYCNTELEGKTQGFTGKTVWYDYWGQGTQVTVSS", "values": [{"measurement": "IC50", "setting": "[12]", "result": 0.0052, "unit": "µM"}, {"measurement": "EC50", "setting": "[13]", "result": 0.00064, "unit": "µM"}]}]}
